From paper doi:10.1101/2022.03.06.483192, “Structural maturation of SYCP1-mediated meiotic chromosome synapsis through conformational remodelling by molecular adapter SYCE3” (bioRxiv, 2022)
Changes are numbered by the printed parent chain. Values joined by “and” are separate entries in the source; they are usually repeats but may differ in a detail not shown here. Equal values may be shown once.

T1: SYCP1αN ΔNtip (UniProt Q15431 112-362)
T1 construct: SYCP1αN (101-362) with the αNtip (amino-acids 101-111) deleted; also called SYCP1 ΔNtip; source: E. coli BL21(DE3), co-expressed with SYCE3, complex purified
T1 sequence (looked up): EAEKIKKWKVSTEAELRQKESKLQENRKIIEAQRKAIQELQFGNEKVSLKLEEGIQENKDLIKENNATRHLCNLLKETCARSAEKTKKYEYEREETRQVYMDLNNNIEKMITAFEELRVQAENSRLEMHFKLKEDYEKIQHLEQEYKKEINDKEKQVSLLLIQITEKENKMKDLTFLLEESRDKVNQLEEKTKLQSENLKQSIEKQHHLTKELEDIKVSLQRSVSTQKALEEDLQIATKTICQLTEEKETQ

T2: SYCP1αN V105E L109E (UniProt Q15431 101-362, V105E | L109E)
T2 construct: SYCP1αN, amino-acids 101-362, with V105E L109E; source: E. coli BL21(DE3), complex with SYCE3
T2 sequence (looked up): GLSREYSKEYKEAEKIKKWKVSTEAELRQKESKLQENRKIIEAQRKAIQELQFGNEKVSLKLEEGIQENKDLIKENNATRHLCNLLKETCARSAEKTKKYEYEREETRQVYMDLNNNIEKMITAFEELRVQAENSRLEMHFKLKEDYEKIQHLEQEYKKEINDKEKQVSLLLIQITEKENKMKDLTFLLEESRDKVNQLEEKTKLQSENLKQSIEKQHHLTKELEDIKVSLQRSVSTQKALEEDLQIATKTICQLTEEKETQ

T3: SYCE2-TEX12core, labelled (UniProt Q6PIF2 57-165; Q9BXU0 49-123, labelled with the Monolith NT Protein Labelling Kit RED (which chain is not told) | labelled with the Monolith NT Protein Labelling Kit RED (which chain is not told))
T3 construct: SYCE2 structural core; TEX12 structural core; source: E. coli BL21(DE3), purified
T3 sequence (looked up) 1: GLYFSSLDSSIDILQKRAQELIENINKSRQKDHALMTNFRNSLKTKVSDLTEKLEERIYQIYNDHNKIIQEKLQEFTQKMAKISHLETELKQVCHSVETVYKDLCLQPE
T3 sequence (looked up) 2: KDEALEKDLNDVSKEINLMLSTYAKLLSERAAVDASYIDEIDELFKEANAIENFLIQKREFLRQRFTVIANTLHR

T4: MBP-SYCP1αNcore (UniProt Q15431 206-362)
T4 construct: SYCP1 tetrameric core (αNcore), amino-acids 206-362; also called MBP-SYCP1 (amino-acids 206-362); source: E. coli BL21(DE3), co-expressed with SYCE3 constructs; in lysate for the pull-down, co-purified (amylose, anion exchange, SEC); not shown: MBP, N-terminal, kept
T4 sequence (looked up): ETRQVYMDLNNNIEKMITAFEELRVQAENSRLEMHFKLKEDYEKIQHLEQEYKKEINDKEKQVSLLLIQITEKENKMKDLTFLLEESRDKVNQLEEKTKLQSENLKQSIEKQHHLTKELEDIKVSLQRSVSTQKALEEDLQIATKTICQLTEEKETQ

T5: MBP-SYCP1αN (UniProt Q15431 101-362)
T5 construct: SYCP1αN, amino-acids 101-362; source: E. coli BL21(DE3), co-expressed with His-SYCE3, complex purified
T5 sequence (looked up): T2 sequence (looked up) with E5V, E9L

B1: SYCE3 12-88 (domain or fragment, UniProt A1L190 12-88, looked up)
chain: DNMLKMLSDLNKDLEKLLEEMEKISVQATWMAYDMVVMRTNPTLAESMRRLEDAFVNCKEEMEKNWQELLHETKQRL
notes: SYCE3 residues 12-88; source: E. coli BL21(DE3), co-expressed with SYCP1αNcore, complex purified
B2: SYCP1 αCore-ΔNtip (domain or fragment, UniProt Q15431 112-783, looked up)
chain: EAEKIKKWKVSTEAELRQKESKLQENRKIIEAQRKAIQELQFGNEKVSLKLEEGIQENKDLIKENNATRHLCNLLKETCARSAEKTKKYEYEREETRQVYMDLNNNIEKMITAFEELRVQAENSRLEMHFKLKEDYEKIQHLEQEYKKEINDKEKQVSLLLIQITEKENKMKDLTFLLEESRDKVNQLEEKTKLQSENLKQSIEKQHHLTKELEDIKVSLQRSVSTQKALEEDLQIATKTICQLTEEKETQMEESNKARAAHSFVVTEFETTVCSLEELLRTEQQRLEKNEDQLKILTMELQKKSSELEEMTKLTNNKEVELEELKKVLGEKETLLYENKQFEKIAEELKGTEQELIGLLQAREKEVHDLEIQLTAITTSEQYYSKEVKDLKTELENEKLKNTELTSHCNKLSLENKELTQETSDMTLELKNQQEDINNNKKQEERMLKQIENLQETETQLRNELEYVREELKQKRDEVKCKLDKSEENCNNLRKQVENKNKYIEELQQENKALKKKGTAESKQLNVYEIKVNKLELELESAKQKFGEITDTYQKEIEDKKISEENLLEEVEKAKVIADEAVKLQKEIDKRCQHKIAEMVALMEKHKHQYDKIIEERDSELGLYKSKEQEQSSLRASLEIELSNLKAELLSVKKQLEIEREEKEKLKREAKE
notes: SYCP1 α-helical core without the αNtip, amino-acids 112-783; tetramer alone by SEC-MALS; also called SYCP1's full α-helical core, in which αNtips were deleted (amino-acids 112-783); source: E. coli BL21(DE3), purified; alone or in complex with SYCE3
B3: SYCP1αNcore (domain or fragment, UniProt Q15431 206-362, looked up)
chain: T4 sequence (looked up)
notes: SYCP1 tetrameric core (αNcore), amino-acids 206-362; tetramer alone by SEC-MALS; two chains in the 2:1 complex with SYCE3; also called SYCP1 tetrameric core; SYCP1αNT; source: E. coli BL21(DE3), purified (amylose, TEV cleavage, anion exchange, SEC); alone or co-expressed with SYCE3; not shown: MBP, N-terminal, cleaved
B4: SYCE3 (natural protein, UniProt A1L190 1-88, looked up)
chain: MDDADPEERNYDNMLKMLSDLNKDLEKLLEEMEKISVQATWMAYDMVVMRTNPTLAESMRRLEDAFVNCKEEMEKNWQELLHETKQRL
notes: SYCE3, wild type; dimer alone by SEC-MALS; one chain in the 2:1 complex with SYCP1; also called SYCE3 wild-type; free SYCE3; source: alone or co-expressed with SYCP1 constructs; not shown: His, N-terminal, cleaved
B5: His-SYCE3 (natural protein, UniProt A1L190 1-88, looked up)
chain: B4 chain
notes: SYCE3, wild type; SYCE3 1-88 (human) was cloned for the two-hybrid; also called SYCE3 wild-type (WT); source: E. coli BL21(DE3), co-expressed with MBP fusions; in lysate for pull-downs, co-purified (amylose, anion exchange, SEC); not shown: His, N-terminal, kept
B6: SYCP1αN (domain or fragment, UniProt Q15431 101-362, looked up)
chain: T2 sequence (looked up) with E5V, E9L
notes: SYCP1 α-helical N-terminal region (αN), amino-acids 101-362; also called SYCP1's full α-helical N-terminal region (amino-acids 101-362); source: E. coli BL21(DE3), purified; alone or co-expressed with SYCE3

Tests used:
SYCP1αNcore [1] = biological target: B3; assay: SEC-MALS; purified proteins or co-expressed, purified complexes at 5-20 mg/ml; Superdex 200 Increase 10/300 GL, 20 mM Tris pH 8.0, 150 mM KCl, 2 mM DTT; conditions: both partners purified
[2] = biological target: the molecule itself; assay: as above
SYCP1 αCore-ΔNtip = biological target: B2; assay: as above; conditions: both partners purified
SYCP1αN ΔNtip = biological target: T1, SYCP1αN ΔNtip; assay: as above; conditions: both partners purified
SYCP1αN = biological target: B6; assay: as above; conditions: both partners purified
SYCP1αN V105E L109E = biological target: T2, SYCP1αN V105E L109E; assay: as above; conditions: both partners purified
[3] = biological target: T3, SYCE2-TEX12core, labelled; assay: MST; SYCE3 titrated (1:1 dilutions) into 150 nM labelled SYCE2-TEX12core; Monolith NT.115, premium treated capillaries, excitation and MST power 40 %; apparent; conditions: both partners purified
SYCP1αNcore [4] = biological target: B3; assay: ITC; SYCE3 (400 µM) injected into SYCP1αNcore (70 µM); 30°C; 25 mM Tris pH 8.0, 250 mM KCl, 2 mM DTT; apparent; conditions: both partners purified
MBP-SYCP1αNcore = biological target: T4, MBP-SYCP1αNcore; assay: SEC-MALS; purified proteins or co-expressed, purified complexes at 5-20 mg/ml; Superdex 200 Increase 10/300 GL, 20 mM Tris pH 8.0, 150 mM KCl, 2 mM DTT; conditions: both partners purified
MBP-SYCP1αN = biological target: T5, MBP-SYCP1αN; assay: SEC-MALS; MBP-SYCP1αN-His-SYCE3 complex on a Superose 6 increase 10/300 GL column; conditions: both partners purified

Binder: B1
stoichiometry N (SYCP1αNcore [1]): 2 SYCP1 chains per SYCE3 chain

Binder: B2
stoichiometry N [2]: 4

Binder: B3
stoichiometry N [2]: 4

Binder: B4
stoichiometry N (SYCP1 αCore-ΔNtip): 2 SYCP1 chains per SYCE3 chain
stoichiometry N (SYCP1αN ΔNtip): 2 SYCP1 chains per SYCE3 chain
stoichiometry N (SYCP1αN): 2 SYCP1 chains per SYCE3 chain (2:1 species) and 2 SYCP1 chains per SYCE3 chain (4:2 species: 4 SYCP1, 2 SYCE3)
stoichiometry N (SYCP1αNcore [1]): 2 SYCP1 chains per SYCE3 chain
stoichiometry N [2]: 2
stoichiometry N (SYCP1αN V105E L109E): 2 SYCP1 chains per SYCE3 chain
Kd [3]: 21.8 µM
Kd (SYCP1αNcore [4]): 0.17 µM

Binder: B5
stoichiometry N (MBP-SYCP1αNcore): 2 SYCP1 chains per SYCE3 chain
stoichiometry N (MBP-SYCP1αN): 2 SYCP1 chains per SYCE3 chain (2:1 species) and 2 SYCP1 chains per SYCE3 chain (4:2 species: 4 SYCP1, 2 SYCE3)

Binder: B6
binding result [2]: binds
